Results reported in paper PMC8488656.

Molecular target: colicin E7 (ColE7) (UniProt Q47112)
Test: ELISA

UniProt Q47112, sequence (Q47112 whole entry): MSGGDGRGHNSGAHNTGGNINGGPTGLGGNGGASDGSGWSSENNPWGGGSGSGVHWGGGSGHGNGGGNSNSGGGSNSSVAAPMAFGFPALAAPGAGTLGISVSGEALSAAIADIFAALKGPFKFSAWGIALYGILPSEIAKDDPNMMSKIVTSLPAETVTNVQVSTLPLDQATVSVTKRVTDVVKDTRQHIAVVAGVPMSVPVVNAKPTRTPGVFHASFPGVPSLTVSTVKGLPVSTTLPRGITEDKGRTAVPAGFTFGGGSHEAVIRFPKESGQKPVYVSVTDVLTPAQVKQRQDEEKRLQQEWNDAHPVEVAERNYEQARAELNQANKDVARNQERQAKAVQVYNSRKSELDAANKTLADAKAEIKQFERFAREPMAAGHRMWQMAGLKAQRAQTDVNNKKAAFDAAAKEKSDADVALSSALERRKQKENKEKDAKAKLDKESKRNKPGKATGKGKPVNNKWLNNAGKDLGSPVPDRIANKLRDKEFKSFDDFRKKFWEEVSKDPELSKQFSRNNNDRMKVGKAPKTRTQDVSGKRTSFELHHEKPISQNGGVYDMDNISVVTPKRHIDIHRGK

“YebF-Im7^N31, glycosylated (from UniProt Q03708 1-87) (natural protein)” gave an agly/ai (binding activity, glycosylated over aglycosylated variant) of 0.55.
With “YebF-Im7^N58, glycosylated (from UniProt Q03708 1-87) (natural protein)” the agly/ai (binding activity, glycosylated over aglycosylated variant) was 3.44.
“YebF-Im7^N30, glycosylated (from UniProt Q03708 1-87) (natural protein)” gave an agly/ai (binding activity, glycosylated over aglycosylated variant) of 1.36.
“YebF-Im7^N49, glycosylated (from UniProt Q03708 1-87) (natural protein)” gave an agly/ai (binding activity, glycosylated over aglycosylated variant) of 1.91.
